In PMC8533160, “First Crystal Structure of Bacterial Oligopeptidase B in an Intermediate State: The Roles of the Hinge Region Modification and Spermine” (Biology, 2021):

Key:
[1] = target: T1, PSP (oligopeptidase B from Serratia proteomaculans) (Serratia proteamaculans, UniProt B3VI58); experiment: initial rate of BAPNA hydrolysis; format: biochemical; conditions: read-out: % inhibition at 5 mM
T1 construct: gene opdB; recombinant from E. coli BL21(DE3); 685 residues with tag; 76 kDa; monomer

[2] = target: T1, PSP (oligopeptidase B from Serratia proteomaculans); experiment: differential scanning calorimetry; format: binding; conditions: 2 mM spermine; 25 mM Na-phosphate, pH 7.8; 2 mg/mL protein
[3] = system: N=C(N)NCCC[C@H](NC(=O)[C@H](CCCCN)NC(=O)OCc1ccccc1)C(=O)Nc1ccc([N+](=O)[O-])cc1; experiment: purified protein; format: biochemical, Serratia proteamaculans; conditions: 0.1 M Tris-HCl, pH 8.0, 2% DMSO, 25 °C
[4] = system: N=C(N)NCCCC(NC(=O)c1ccccc1)C(=O)Nc1ccc([N+](=O)[O-])cc1; experiment: purified protein; format: biochemical, Serratia proteamaculans; conditions: 0.1 M Tris-HCl, pH 8.0, 2% DMSO, 25 °C
[5] = system: N=C(N)NCCC[C@H](NC(=O)OCc1ccccc1)C(=O)N[C@@H](CCCNC(=N)N)C(=O)Nc1ccc([N+](=O)[O-])cc1; experiment: purified protein; format: biochemical, Serratia proteamaculans; conditions: 0.1 M Tris-HCl, pH 8.0, 2% DMSO, 25 °C

Compound | inhibition at 5000 µM [1] | dTmax [2] | Km [3] | kcat [3] | kcat/Km [3] | Km [4] | kcat [4] | kcat/Km [4] | Km [5] | kcat [5] | kcat/Km [5]
NCCCNCCCCNCCCN [spermine] | 20% | 1 degree |  |  |  |  |  |  |  |  | 
PSP (oligopeptidase B from Serratia proteomaculans) (Serratia proteamaculans) |  |  | 20.8 µM | 50.8 s⁻¹ | 2.43e+06 M⁻¹ s⁻¹ | 78.1 µM | 13.2 s⁻¹ | 168000 M⁻¹ s⁻¹ | 4.35 µM | 36.4 s⁻¹ | 8.35e+06 M⁻¹ s⁻¹
